Target: T1, BMC08 (uncultured bacterium (metagenome))
T1 chain: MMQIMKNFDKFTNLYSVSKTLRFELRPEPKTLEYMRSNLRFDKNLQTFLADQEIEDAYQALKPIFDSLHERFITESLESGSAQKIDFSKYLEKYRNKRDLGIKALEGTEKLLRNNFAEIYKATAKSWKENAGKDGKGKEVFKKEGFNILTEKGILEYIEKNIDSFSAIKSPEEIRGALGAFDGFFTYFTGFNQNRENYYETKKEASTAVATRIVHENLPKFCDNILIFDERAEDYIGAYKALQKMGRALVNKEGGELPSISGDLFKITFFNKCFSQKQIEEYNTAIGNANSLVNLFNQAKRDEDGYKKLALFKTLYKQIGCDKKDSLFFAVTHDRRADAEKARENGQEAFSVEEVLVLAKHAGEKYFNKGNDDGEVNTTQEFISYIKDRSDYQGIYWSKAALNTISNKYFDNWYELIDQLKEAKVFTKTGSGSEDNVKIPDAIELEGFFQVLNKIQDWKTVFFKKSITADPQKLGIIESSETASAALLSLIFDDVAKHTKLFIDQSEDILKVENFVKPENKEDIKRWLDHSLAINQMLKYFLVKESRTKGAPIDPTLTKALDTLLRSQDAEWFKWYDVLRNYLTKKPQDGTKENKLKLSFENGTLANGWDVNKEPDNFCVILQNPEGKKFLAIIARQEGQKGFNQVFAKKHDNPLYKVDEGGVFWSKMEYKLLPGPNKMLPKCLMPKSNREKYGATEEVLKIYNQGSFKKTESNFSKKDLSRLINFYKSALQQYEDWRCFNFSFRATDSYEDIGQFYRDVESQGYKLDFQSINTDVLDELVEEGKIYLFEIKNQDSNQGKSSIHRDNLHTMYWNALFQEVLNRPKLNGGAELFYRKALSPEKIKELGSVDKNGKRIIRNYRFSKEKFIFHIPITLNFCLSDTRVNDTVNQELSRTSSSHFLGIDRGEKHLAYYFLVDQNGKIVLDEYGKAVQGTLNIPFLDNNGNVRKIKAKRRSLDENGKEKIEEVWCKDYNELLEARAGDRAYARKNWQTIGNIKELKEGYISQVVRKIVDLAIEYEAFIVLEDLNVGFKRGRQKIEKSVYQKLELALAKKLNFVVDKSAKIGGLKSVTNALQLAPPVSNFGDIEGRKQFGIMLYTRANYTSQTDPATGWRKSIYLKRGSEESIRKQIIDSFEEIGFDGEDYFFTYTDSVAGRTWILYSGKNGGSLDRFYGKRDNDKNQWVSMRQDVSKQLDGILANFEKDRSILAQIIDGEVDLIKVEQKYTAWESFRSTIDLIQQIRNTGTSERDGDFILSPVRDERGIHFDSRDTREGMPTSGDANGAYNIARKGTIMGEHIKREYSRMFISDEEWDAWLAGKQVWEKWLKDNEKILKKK
Assay: cell_activity; PAM not stated; E. coli depletion, 30 C
Method in brief: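 E. coli carrying arabinose-induced (0.2%) BMC nuclease, grown at 30° C., made electrocompetent and electroporated with 50-100 ng plasmid carrying gRNA against malQ. Transformants plated on selective M9-glucose agar with kanamycin/ampicillin (± nourseothricin), and growth scored after 48 h at 30° C.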

B1: malQ gRNA (BMC stem-loop + 24 nt spacer) ; malQ protospacer (ssRNA ; dsDNA)
RNA: GAUUUCUACUAUUGUAGAUGUGGCGGUACGUUGAUGCAUCGCG
DNA 1: GTGGCGGTACGTTGATGCATCGCG
DNA 2: CGCGATGCATCAACGTACCGCCAC
B1 showed an activity of over 99.9 % colony reduction.
